The results in this text go back to patent US10100120B2, “Antibody which specifically binds to human CRTH2” (KYOWA HAKKO KIRIN CO., LTD, priority 2015, dated 2018).

The experiment addresses T1, mutated human CRTH2 with amino acid substitution (Homo sapiens, UniProt Q9Y5Y4, L187A/L188A/L189A).
T1 construct: inserting genes encoding various mutants with amino acid substitution obtained by deleting termination codons; expressed in transfected cells; host or cells: CHO-S cells (Lifetechnologies), transient (phmAG1-MNLinker vector)
T1 sequence (Q9Y5Y4 1-395 L187A/L188A/L189A): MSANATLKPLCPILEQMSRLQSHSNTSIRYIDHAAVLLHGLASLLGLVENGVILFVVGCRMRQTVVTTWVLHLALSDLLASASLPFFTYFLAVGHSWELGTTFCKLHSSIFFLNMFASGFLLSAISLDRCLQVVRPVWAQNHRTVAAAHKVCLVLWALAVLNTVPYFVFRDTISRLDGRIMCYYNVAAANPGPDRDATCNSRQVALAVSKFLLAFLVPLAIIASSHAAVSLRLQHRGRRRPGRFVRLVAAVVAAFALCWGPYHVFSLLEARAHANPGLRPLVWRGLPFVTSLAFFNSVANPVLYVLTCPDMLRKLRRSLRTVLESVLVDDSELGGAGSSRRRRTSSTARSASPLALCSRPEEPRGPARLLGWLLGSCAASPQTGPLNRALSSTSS
The experiment can be described thus: Epitope analysis using CHO-S cells which express mutated human CRTH2 with amino acid substitution. The experiment is classed as binding. Particulars: mutant L187A, L188A, and L189A; antibody 10 μg/mL; relative to wild-type = 100%. The essentials: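 CHO-S cells transiently expressing alanine-substituted human CRTH2 extracellular mutants, C-terminally Azami-Green tagged, 24 h post-transfection. Antibodies at 10 μg/mL, 4 °C 1 h, then Alexa647 anti-IgG secondary 4 °C 1 h; flow cytometry on Azami-Green-positive cells. Reactivity = Alexa647 intensity divided by Azami-Green intensity.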

B1: LV0HV1: humanized Lym2 antibody, VL LV0 (SEQ ID NO: 33), VH HV1 (SEQ ID NO: 51) (antibody, V domains shown)
VH: EVQLVESGGGVVQPGRSLRLSCAASGFTFSNYYMAWVRQAPGKGLEWVATISYDGSSTYYRDSVKGRFTISRDNAKNSLYLQMNSLRAEDTATYYCARHRGYYYSGAGYFDYWGQGTMVTVSS
VL: DIVMTQTPLSLPVTPGESASISCRSSQSLEYSDGYTYLEWYLQKPGQSPQVLIYGVSNRFSGVPDRFSGSGSGTDFTLKISRVEAEDVGVYYCFQATHDPLTFGQGTKLEIK
In the case of B1, the “reactivity against cells expressing mutated human CRTH2” value is reported as “lost”.
